Results reported in patent US20090202562A1 (Biogen, published 2009).

T1: murine GFRalpha3 (murine, UniProt O35118 29-371)
T1 construct: also called murine GFRalpha3 on NB41A3-L3 cells
T1 sequence: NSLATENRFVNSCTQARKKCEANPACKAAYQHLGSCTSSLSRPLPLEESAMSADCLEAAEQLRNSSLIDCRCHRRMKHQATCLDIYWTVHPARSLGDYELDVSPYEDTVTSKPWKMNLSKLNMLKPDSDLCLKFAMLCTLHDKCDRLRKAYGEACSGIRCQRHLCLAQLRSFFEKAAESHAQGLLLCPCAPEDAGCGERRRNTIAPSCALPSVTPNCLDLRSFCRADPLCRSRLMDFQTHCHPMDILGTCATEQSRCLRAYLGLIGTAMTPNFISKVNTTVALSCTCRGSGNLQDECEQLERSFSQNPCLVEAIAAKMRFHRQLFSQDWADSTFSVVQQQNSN

T2: rat GFRalpha3 (rat, UniProt O35118 29-370 (mouse entry))
T2 construct: Expressed on transiently transfected HEK 293 EBNA cells; also called RetL3
T2 chain: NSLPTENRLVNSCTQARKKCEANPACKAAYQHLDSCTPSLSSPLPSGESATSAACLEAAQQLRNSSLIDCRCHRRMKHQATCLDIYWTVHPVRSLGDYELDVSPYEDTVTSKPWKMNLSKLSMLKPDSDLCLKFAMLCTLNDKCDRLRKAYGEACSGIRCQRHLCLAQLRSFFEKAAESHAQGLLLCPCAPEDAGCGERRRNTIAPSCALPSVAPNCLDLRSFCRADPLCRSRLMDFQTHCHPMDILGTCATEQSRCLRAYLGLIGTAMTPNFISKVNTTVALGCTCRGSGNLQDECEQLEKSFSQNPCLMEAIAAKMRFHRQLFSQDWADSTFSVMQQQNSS

T3: rat GFRalpha1 (rat, UniProt Q62997 25-430)
T3 construct: whole, on cells; Expressed on transiently transfected HEK 293 EBNA cells
T3 sequence (looked up): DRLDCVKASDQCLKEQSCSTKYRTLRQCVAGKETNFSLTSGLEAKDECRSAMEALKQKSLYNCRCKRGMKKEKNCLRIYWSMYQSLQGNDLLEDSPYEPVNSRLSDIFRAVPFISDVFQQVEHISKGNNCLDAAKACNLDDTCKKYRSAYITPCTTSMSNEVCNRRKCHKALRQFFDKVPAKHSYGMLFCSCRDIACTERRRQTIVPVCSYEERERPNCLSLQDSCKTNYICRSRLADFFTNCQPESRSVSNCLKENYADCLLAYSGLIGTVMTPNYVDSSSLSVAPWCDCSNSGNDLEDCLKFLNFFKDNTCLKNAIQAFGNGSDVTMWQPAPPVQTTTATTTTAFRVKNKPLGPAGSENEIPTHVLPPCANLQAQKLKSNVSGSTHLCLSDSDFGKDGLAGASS

T4: rat GFRalpha2 (rat, UniProt O35977 22-444)
T4 construct: whole, on cells; Expressed on transiently transfected HEK 293 EBNA cells
T4 sequence: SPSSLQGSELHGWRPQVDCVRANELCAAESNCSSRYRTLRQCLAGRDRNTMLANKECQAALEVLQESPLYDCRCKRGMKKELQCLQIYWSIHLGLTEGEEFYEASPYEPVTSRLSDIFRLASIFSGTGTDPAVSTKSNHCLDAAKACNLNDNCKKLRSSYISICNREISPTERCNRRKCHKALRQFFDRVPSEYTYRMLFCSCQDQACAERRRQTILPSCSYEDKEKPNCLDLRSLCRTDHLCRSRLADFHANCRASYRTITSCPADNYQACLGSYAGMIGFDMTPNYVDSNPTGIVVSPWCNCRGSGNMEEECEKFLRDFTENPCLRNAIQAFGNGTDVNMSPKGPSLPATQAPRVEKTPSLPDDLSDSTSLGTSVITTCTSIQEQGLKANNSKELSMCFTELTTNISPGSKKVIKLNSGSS


Key:
murine GFRalpha3 = target: T1, murine GFRalpha3; assay: Neublastin competition binding on NB41A3-L3 cells (murine GFRalpha3 plus endogenous murine Ret): 0-10 uM rat Neublastin for 10 min at 4 C, unoccupied GFRalpha3 probed with 10 ug/ml biotinylated MOR02683, FACS with PE-Streptavidin, hyperbolic fit
Description: NB41A3-L3 cells were incubated with different concentrations of rat Neublastin for 10 minutes at 4° C. During the incubation period, the binding reaction of Neublastin to GFRalpha3 and Ret on the cell surface reaches equilibrium. Cells were then quenched with a high concentration (10 ug/ml) of biotinylated MOR02683 for 2 minutes. MOR02683 can only bind to GFRalpha3 receptors that are not already occupied by Neublastin and thus acts as a probe for unoccupied GFRalpha3 receptors. During the short incubation time of the quenching reaction, no re-equilibration between Neublastin and MOR02683 binding occurs. The amount of MOR02683 bound to GFRalpha3 was then quantified via FACS analysis using PE-Streptavidin as a secondary reagent.
Neublastin competition binding was used to measure Neublastin binding affinities to receptors on the cell surface. NB41A3-L3 cells were incubated with 0-10 uM rat Neublastin for 10 minutes at 4° C. Cells were then quenched with 10 ug/ml biotinylated MOR02683 for 2 minutes. The amount of MOR02683 bound to GFRalpha3 was quantified by FACS using PE-Streptavidin as a secondary reagent. […] A Neublastin concentration-dependent reduction in the subsequent binding of MOR02683 was observed, but not with the control antibody MOR02682 (FIG. 8).

rat GFRalpha3 = target: T2, rat GFRalpha3; assay: FACS
rat GFRalpha1 = target: T3, rat GFRalpha1; assay: FACS on transiently transfected HEK 293 EBNA cells
Description: (§1) HEK 293 EBNA cells were transiently transfected with an empty vector, a vector encoding rat GFRalpha1, a vector encoding rat GFRalpha2, or a vector encoding rat GFRalpha3. These cells were stained with 10 ug/ml of the anti-GFRalpha3 polyclonal antibody R11 (a rabbit polyclonal antibody generated by immunization with the peptide […] (SEQ ID NO:14), which contains a murine GFRalpha3 sequence and a heterologous GC sequence at its carboxy terminus) or with 10 ug/ml MOR02683. The vector-transfected cells shifted slightly above the unstained baseline because the HEK 293 EBNA cells endogenously expresses GFRalpha3 (FIGS. 2A and 2B). […] The lack of shift of the GFRalpha1-transfected cells and GFRalpha2-transfected cells as compared to vector-transfected cells indicated the specificity of MOR02683 for GFRalpha3 over its close family members (FIGS. 2A and 2B).

rat GFRalpha2 = target: T4, rat GFRalpha2; assay: FACS on transiently transfected HEK 293 EBNA cells
Description: as §1

murine GFRalpha3-Ig = murine GFRalpha3-Ig (murine); assay: inhibition of Neublastin-GFRalpha3-Ret ternary complex formation: MOR02683 preincubated with 1 ug/ml murine GFRalpha3-Ig, 50 ng/ml rat Neublastin and rat Ret-AP conditioned media; capture on an anti-human Fc plate; AP chemiluminescence
Description: MOR02683 was preincubated with 1 ug/ml murine GFRalpha3-Ig ([…] […] […] […] […] […] […] […] […] […] […] […]; SEQ ID NO:19) and 50 ng/ml rat Neublastin (113 amino acid form; […] […] TACGCLG; SEQ ID NO:20) in rat Ret-alkaline phosphatase ([…] […] […] […] […] […] […] […] […] […] […] […] […] […] […] […] […] […] […] […] […] […]; SEQ ID NO:21) conditioned media for an hour before being added to the coated plate for another hour. The alkaline phosphatase (AP) was visualized with a chemiluminescent substrate and the plate was read on a luminometer.

| Binder | Kd (murine GFRalpha3) | binding result (rat GFRalpha3) | binding result (rat GFRalpha1) | binding result (rat GFRalpha2) | EC50 (murine GFRalpha3-Ig) |
| --- | --- | --- | --- | --- | --- |
| rat Neublastin (113 amino acid form) (ligand) AGTRSSRARATDARGCRLRSQLVPVSALGLGHSSDELIRFRFCSGSCRRARSPHDLSLASLLDAGALRSPPGSRPISQPCCRPTRYEAVSFMDVNSTWRTVDHLSATACGCLG | ~200 nM | – | – | – | – |
| Fab fragment MOR02683 (Fab, V domains shown, From the HuCAL GOLD Fab phage display library; also called anti-GFRalpha3 Fab fragment MOR02683) VH: QVQLVESGGGLVQPGGSLRLSCAASGFTFSNYTMHWVRQAPGKGLEWVSVISYDGSSTYYADSVKGRFTISRDNSKNTLYLQMNSLRAEDTAVYYCARIVRMDIWGQGTLVTVSS VL: DIVLTQSPATLSLSPGERATLSCRASQSVNSHYLAWYQQKPGQAPRLLIYGASNRATGVPARFSGSGSGTDFTLTISSLEPEDFATYYCQQMDGFPFTFGQGTKVEIKR | – | binds | no binding (tested: 10 ug/ml) | no binding (tested: 10 ug/ml) | ~0.25 µg/mL |
